Where a chain is given by its changes, count along the chain named. Names and notes keep the numbering of the source. Values belong to the binder of their own block, whether it stands above or below them.
How the values were obtained:
[1] = biological target: the molecule itself; experiment: SEC; isolated monomers at low concentration (~7.5 µM) and high concentrations (54 µM for R221E, 30 µM for wt)
[2] = biological target: T1, rh wild-type Bri2 BRICHOS-mCherry (human, UniProt Q9Y287 113-231); experiment: not stated; coincubation of R221E monomers with Bri2 BRICHOS-mCherry oligomers at rising molar ratios; release of wild-type monomers followed (Supplementary Fig. 5); details: both partners purified
T1 construct: Bri2 BRICHOS domain, human (rh = recombinant human), Bri2 residues 113-231; Used as isolated oligomers; also called rh Bri2 BRICHOS-mCherry; source: E. coli SHuffle T7, purified (same protocol as R221E; oligomers isolated on Superdex 200 PG); not shown: His6, N-terminal, cleaved; NT*, N-terminal, cleaved; mCherry, C-terminal, kept
T1 sequence (looked up): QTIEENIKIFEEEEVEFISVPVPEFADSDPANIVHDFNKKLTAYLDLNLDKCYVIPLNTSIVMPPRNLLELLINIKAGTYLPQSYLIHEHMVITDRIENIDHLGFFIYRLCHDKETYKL

B1: rh wild-type Bri2 BRICHOS (domain or fragment, human, UniProt Q9Y287 113-231, looked up)
chain: T1 sequence (looked up)
notes: Bri2 BRICHOS domain, human (rh = recombinant human), Bri2 residues 113-231; also called rh wt Bri2 BRICHOS; wild-type monomers; source: E. coli SHuffle T7, purified (Ni-NTA, thrombin cleavage, second Ni-NTA, SEC); not shown: His6, N-terminal, cleaved; NT*, N-terminal, cleaved
stoichiometry N [1]: 2

molar ratio of mutant to wild-type oligomers at which the release of wild-type monomers saturates [2]: ~2 mol/mol
B2: rh Bri2 BRICHOS R221E monomer (domain or fragment, human, UniProt Q9Y287 113-231, looked up)
chain: T1 sequence (looked up) with R109E
modifications: intramolecular disulfide bond between the two conserved Cys (monomer, by ESI-MS)
notes: Bri2 BRICHOS domain, human (rh = recombinant human), Bri2 residues 113-231, with R221E; Used here for the isolated monomer and as the subunit in the rows on self-association (oligomers, dimers); Measured mass 14,050.2 Da; also called rh Bri2 R221E monomer; source: E. coli SHuffle T7, purified (Ni-NTA, thrombin cleavage, second Ni-NTA, SEC); not shown: His6, N-terminal, cleaved; NT*, N-terminal, …
